Assay results as given in publication PMC9482650, “Quantitative fragmentomics allow affinity mapping of interactomes” (Nature Communications, 2022).

T1: APBA1_1, Q02410
T1 sequence (Q02410 651-752, limits assumed, looked up): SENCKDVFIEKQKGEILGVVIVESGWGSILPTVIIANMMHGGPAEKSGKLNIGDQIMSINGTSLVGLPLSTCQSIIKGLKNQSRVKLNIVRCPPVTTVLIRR

T2: APBA3_1, O96018
T2 sequence (O96018 389-490, limits assumed, looked up): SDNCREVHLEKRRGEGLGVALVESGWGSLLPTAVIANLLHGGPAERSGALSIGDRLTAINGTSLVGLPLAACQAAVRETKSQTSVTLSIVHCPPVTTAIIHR

T3: ARHGAP21, Q5T5U3
T3 sequence (Q5T5U3 45-169, limits assumed, looked up): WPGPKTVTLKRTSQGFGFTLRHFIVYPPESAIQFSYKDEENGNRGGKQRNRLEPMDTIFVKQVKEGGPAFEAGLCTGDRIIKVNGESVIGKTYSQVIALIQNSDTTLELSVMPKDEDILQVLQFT

T4: DLG3_3, Q92796
T4 sequence (Q92796 374-475, limits assumed, looked up): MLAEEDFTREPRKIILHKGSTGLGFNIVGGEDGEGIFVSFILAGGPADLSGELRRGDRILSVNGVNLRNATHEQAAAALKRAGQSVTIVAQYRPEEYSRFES

T5: FRMPD1, Q5SYB0
T5 sequence (Q5SYB0 52-145, limits assumed, looked up): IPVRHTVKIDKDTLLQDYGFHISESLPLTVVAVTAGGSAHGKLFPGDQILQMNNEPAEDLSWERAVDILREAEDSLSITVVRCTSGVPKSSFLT

T6: LIN7C, Q9NUP9
T6 sequence (Q9NUP9 88-185, limits assumed, looked up): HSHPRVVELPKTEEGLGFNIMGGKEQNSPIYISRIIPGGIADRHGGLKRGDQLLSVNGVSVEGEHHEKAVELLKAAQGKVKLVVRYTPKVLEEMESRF

T7: LNX2_3, Q8N448
T7 sequence (Q8N448 463-564, limits assumed, looked up): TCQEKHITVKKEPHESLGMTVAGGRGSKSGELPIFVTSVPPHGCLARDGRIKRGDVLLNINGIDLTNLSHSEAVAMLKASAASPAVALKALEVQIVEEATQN

T8: LRRC7, Q96NW7
T8 sequence (Q96NW7 1440-1537, limits assumed, looked up): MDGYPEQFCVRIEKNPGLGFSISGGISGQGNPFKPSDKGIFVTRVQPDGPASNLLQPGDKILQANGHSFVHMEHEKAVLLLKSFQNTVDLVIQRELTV

T9: RAPGEF6, Q8TEU7
T9 sequence (Q8TEU7 525-625, limits assumed, looked up): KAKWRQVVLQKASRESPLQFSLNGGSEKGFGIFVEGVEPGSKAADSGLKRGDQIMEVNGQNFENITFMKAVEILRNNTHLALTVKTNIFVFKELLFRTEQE

T10: SHANK1, Q9Y566
T10 sequence (Q9Y566 658-767, limits assumed, looked up): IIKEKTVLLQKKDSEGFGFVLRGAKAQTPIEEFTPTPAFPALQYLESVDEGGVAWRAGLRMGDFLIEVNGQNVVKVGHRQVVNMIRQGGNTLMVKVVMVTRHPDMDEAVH

T11: TJP3_3, O95049
T11 sequence (O95049 375-456, limits assumed, looked up): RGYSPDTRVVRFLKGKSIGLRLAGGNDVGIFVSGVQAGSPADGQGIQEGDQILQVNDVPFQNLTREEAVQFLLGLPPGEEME


Columns and labels:
Assay in all cases: holdup assay
Parameters in all cases: key: below the threshold = too weak to quantify, mostly under pKd 3.1 to 4
Settings in all cases: plain residues with an end cap or a label only (N-terminal biotin on a linker: ado-ado)
AHNAK1, Q09666 = molecular target: AHNAK1, Q09666
APBA1_1, Q02410 = molecular target: T1, APBA1_1, Q02410
APBA3_1, O96018 = molecular target: T2, APBA3_1, O96018
ARHGAP21, Q5T5U3 = molecular target: T3, ARHGAP21, Q5T5U3
DLG2_2, Q15700 = molecular target: DLG2_2, Q15700
DLG3_3, Q92796 = molecular target: T4, DLG3_3, Q92796
FRMPD1, Q5SYB0 = molecular target: T5, FRMPD1, Q5SYB0
FRMPD2_1, Q68DX3 = molecular target: FRMPD2_1, Q68DX3
GRID2IP_1, A4D2P6 = molecular target: GRID2IP_1, A4D2P6
Inadl_2, Q8NI35 = molecular target: Inadl_2, Q8NI35
Inadl_4, Q8NI35 = molecular target: Inadl_4, Q8NI35
Inadl_8, Q8NI35 = molecular target: Inadl_8, Q8NI35
LDB3, O75112 = molecular target: LDB3, O75112
LIN7C, Q9NUP9 = molecular target: T6, LIN7C, Q9NUP9
LNX2_3, Q8N448 = molecular target: T7, LNX2_3, Q8N448
LRRC7, Q96NW7 = molecular target: T8, LRRC7, Q96NW7
MAGI2_3, Q86UL8 = molecular target: MAGI2_3, Q86UL8
MAGI2_4, Q86UL8 = molecular target: MAGI2_4, Q86UL8
MAGI3_2, Q5TCQ9 = molecular target: MAGI3_2, Q5TCQ9
NHERF4_1, Q86UT5-2 = molecular target: NHERF4_1, Q86UT5-2
NHERF4_2, Q86UT5 = molecular target: NHERF4_2, Q86UT5
PARD3_3, Q8TEW0 = molecular target: PARD3_3, Q8TEW0
PDLIM1, O00151 = molecular target: PDLIM1, O00151
PTPN3, P26045 = molecular target: PTPN3, P26045
RAPGEF6, Q8TEU7 = molecular target: T9, RAPGEF6, Q8TEU7
SHANK1, Q9Y566 = molecular target: T10, SHANK1, Q9Y566
TJP3_3, O95049 = molecular target: T11, TJP3_3, O95049

MAGI3_2, Q5TCQ9, sequence (Q5TCQ9 398-503): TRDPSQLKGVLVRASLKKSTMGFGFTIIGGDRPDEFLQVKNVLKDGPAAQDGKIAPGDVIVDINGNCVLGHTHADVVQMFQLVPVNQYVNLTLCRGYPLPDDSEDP
AHNAK1, Q09666, sequence (Q09666 4-100): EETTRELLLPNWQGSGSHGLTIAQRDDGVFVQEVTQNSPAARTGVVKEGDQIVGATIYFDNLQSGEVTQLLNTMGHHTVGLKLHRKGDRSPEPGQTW
MAGI2_3, Q86UL8, sequence (Q86UL8 600-682): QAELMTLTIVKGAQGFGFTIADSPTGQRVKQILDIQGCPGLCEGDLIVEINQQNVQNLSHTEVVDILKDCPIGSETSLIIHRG
DLG2_2, Q15700, sequence (Q15700 189-283): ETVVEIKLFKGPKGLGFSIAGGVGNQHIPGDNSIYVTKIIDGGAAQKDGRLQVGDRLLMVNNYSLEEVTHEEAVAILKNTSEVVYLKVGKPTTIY
PDLIM1, O00151, sequence (O00151 1-87): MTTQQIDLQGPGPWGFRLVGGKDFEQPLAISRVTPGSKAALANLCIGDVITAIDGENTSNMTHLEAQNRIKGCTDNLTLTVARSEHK
MAGI2_4, Q86UL8, sequence (Q86UL8 772-865): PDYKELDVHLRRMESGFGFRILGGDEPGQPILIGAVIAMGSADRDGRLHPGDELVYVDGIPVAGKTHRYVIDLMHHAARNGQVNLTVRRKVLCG
NHERF4_2, Q86UT5, sequence (Q86UT5 220-308): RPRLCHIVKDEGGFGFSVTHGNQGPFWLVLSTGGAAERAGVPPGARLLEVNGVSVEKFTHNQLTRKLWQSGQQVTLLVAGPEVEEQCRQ
PARD3_3, Q8TEW0, sequence (Q8TEW0 582-685): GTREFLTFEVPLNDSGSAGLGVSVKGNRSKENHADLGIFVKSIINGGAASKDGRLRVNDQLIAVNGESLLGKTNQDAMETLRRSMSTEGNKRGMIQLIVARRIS
Inadl_2, Q8NI35, sequence (Q8NI35 238-335): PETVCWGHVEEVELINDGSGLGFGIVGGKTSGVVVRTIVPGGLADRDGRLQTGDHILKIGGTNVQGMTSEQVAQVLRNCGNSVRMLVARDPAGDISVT
Inadl_4, Q8NI35, sequence (Q8NI35 547-651): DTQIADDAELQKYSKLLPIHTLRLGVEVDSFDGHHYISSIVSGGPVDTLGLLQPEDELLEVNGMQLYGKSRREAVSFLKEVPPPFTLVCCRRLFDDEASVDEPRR
GRID2IP_1, A4D2P6, sequence (A4D2P6 1-87): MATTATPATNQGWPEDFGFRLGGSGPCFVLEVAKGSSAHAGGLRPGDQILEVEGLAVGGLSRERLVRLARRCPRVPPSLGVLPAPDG
LDB3, O75112, sequence (O75112 1-94): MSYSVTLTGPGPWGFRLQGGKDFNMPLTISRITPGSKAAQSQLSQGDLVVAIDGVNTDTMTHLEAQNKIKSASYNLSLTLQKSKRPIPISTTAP
PTPN3, P26045, sequence (P26045 505-587): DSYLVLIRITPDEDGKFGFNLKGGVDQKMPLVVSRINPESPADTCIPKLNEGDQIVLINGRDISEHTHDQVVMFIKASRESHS
Inadl_8, Q8NI35, sequence (Q8NI35 1425-1530): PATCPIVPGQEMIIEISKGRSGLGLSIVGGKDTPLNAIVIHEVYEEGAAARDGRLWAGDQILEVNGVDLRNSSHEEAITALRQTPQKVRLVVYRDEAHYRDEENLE
NHERF4_1, Q86UT5-2, sequence (Q86UT5 other isoform, or with tags, fused parts or gaps): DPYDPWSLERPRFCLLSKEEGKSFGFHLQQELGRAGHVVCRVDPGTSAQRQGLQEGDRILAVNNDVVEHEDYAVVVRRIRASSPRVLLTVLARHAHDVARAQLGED
FRMPD2_1, Q68DX3, sequence (Q68DX3 770-861): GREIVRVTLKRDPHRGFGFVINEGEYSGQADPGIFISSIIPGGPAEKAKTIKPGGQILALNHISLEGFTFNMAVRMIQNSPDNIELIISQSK

Binder	pKd (AHNAK1, Q09666)	pKd (APBA1_1, Q02410)	pKd (APBA3_1, O96018)	pKd (ARHGAP21, Q5T5U3)	pKd (DLG2_2, Q15700)	pKd (DLG3_3, Q92796)	pKd (FRMPD1, Q5SYB0)	pKd (FRMPD2_1, Q68DX3)	pKd (GRID2IP_1, A4D2P6)	pKd (Inadl_2, Q8NI35)	pKd (Inadl_4, Q8NI35)	pKd (Inadl_8, Q8NI35)	pKd (LDB3, O75112)	pKd (LIN7C, Q9NUP9)	pKd (LNX2_3, Q8N448)	pKd (LRRC7, Q96NW7)	pKd (MAGI2_3, Q86UL8)	pKd (MAGI2_4, Q86UL8)	pKd (MAGI3_2, Q5TCQ9)	pKd (NHERF4_1, Q86UT5-2)	other results
HSGYRLNDYV [CLDN14, O95500]	below the threshold	below the threshold	below the threshold	3.95	below the threshold	below the threshold	below the threshold	below the threshold	below the threshold	below the threshold	below the threshold	3.87	below the threshold	below the threshold	below the threshold	below the threshold	below the threshold	3.94	below the threshold	3.57	pKd (NHERF4_2, Q86UT5): below the threshold; pKd (PARD3_3, Q8TEW0): 3.83; pKd (PDLIM1, O00151): below the threshold; pKd (PTPN3, P26045): below the threshold; pKd (RAPGEF6, Q8TEU7): below the threshold; pKd (SHANK1, Q9Y566): below the threshold; pKd (TJP3_3, O95049): 4.28
DDENIRTSDV [PLEKHA2, Q9HB19]	below the threshold	below the threshold	below the threshold	4.37	4.04	below the threshold	below the threshold	below the threshold	below the threshold	below the threshold	below the threshold	4.94	below the threshold	below the threshold	below the threshold	3.72	below the threshold	below the threshold	4.05	below the threshold	pKd (NHERF4_2, Q86UT5): below the threshold; pKd (PARD3_3, Q8TEW0): below the threshold; pKd (PDLIM1, O00151): below the threshold; pKd (PTPN3, P26045): 4.6; pKd (RAPGEF6, Q8TEU7): below the threshold; pKd (SHANK1, Q9Y566): below the threshold; pKd (TJP3_3, O95049): below the threshold
TSSMRGMDAV [RSRC2, Q7L4I2]	below the threshold	below the threshold	below the threshold	below the threshold	below the threshold	below the threshold	below the threshold	below the threshold	below the threshold	below the threshold	below the threshold	below the threshold	below the threshold	3.97	below the threshold	below the threshold	below the threshold	below the threshold	below the threshold	3.91	pKd (NHERF4_2, Q86UT5): below the threshold; pKd (PARD3_3, Q8TEW0): below the threshold; pKd (PDLIM1, O00151): below the threshold; pKd (PTPN3, P26045): 3.67; pKd (RAPGEF6, Q8TEU7): below the threshold; pKd (SHANK1, Q9Y566): below the threshold; pKd (TJP3_3, O95049): below the threshold
TACCHSETVV [TGFA, P01135]	below the threshold	below the threshold	below the threshold	4.08	4.76	3.85	below the threshold	below the threshold	below the threshold	below the threshold	below the threshold	3.72	below the threshold	below the threshold	below the threshold	below the threshold	below the threshold	4.4	5.27	below the threshold	pKd (NHERF4_2, Q86UT5): below the threshold; pKd (PARD3_3, Q8TEW0): 3.85; pKd (PDLIM1, O00151): below the threshold; pKd (PTPN3, P26045): 4.41; pKd (RAPGEF6, Q8TEU7): below the threshold; pKd (SHANK1, Q9Y566): below the threshold; pKd (TJP3_3, O95049): below the threshold
KKMPSIESDV [GRIN2A, Q12879]	below the threshold	below the threshold	below the threshold	below the threshold	5.04	below the threshold	below the threshold	below the threshold	below the threshold	below the threshold	below the threshold	3.76	below the threshold	below the threshold	below the threshold	3.91	below the threshold	below the threshold	4.32	below the threshold	pKd (NHERF4_2, Q86UT5): below the threshold; pKd (PARD3_3, Q8TEW0): below the threshold; pKd (PDLIM1, O00151): 3.93; pKd (PTPN3, P26045): 4.44; pKd (RAPGEF6, Q8TEU7): below the threshold; pKd (SHANK1, Q9Y566): below the threshold; pKd (TJP3_3, O95049): below the threshold
